Results as given in patent US20130272958A1 (NATIONAL RESEARCH COUNCIL OF CANADA, published 2013).

T1: recombinant CEACAM6 N-terminal domain (expressed in E. coli) (Homo sapiens (Human), UniProt P40199 35-142, limits assumed)
T1 construct: also called CEACAM6 N-domain; recombinant CEACAM6 protein (N-domain)
T1 sequence: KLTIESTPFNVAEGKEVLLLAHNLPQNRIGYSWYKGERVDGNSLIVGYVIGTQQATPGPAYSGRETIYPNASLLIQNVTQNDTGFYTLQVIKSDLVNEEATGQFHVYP

T2: native CEACAM6 expressed by human tumor cells (BxPC3, LS174T, A549) (human, UniProt P40199 35-320)
T2 sequence: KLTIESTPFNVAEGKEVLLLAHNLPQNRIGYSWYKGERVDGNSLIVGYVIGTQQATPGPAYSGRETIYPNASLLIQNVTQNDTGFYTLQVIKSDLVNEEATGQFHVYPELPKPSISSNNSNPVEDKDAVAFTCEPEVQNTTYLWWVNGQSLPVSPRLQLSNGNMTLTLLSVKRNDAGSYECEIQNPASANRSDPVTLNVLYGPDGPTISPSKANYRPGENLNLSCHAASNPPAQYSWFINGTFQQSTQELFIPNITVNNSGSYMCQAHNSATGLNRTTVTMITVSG

T3: CEACAM6 peptide HNLPQNRIGYSWYKG
T3 construct: Spot on a JPT peptide array (45 peptides, 15 residues long, 10 overlapping)
T3 peptide: HNLPQNRIGYSWYKG

T4: CEACAM6 peptide NRIGYSWYKGERVDG
T4 construct: Spot on a JPT peptide array (45 peptides, 15 residues long, 10 overlapping)
T4 peptide: NRIGYSWYKGERVDG


Experiments:
[1] = molecular target: recombinant CEACAM6 N-terminal domain (expressed in E. coli) (Homo sapiens (Human)) (UniProt P40199); assay: SPR (Biacore 3000), 9A6 immobilised, CEACAM6 recombinant protein injected at 0.1-200 nM
[2] = molecular target: T1, recombinant CEACAM6 N-terminal domain …; assay: SPR (Biacore 3000), CEACAM6 immobilised, 2A3 injected at 1-60 nM, 1:1 Langmuir fit
Experimental: Immobilizations were performed with an amine-coupling kit (GE Healthcare) and carried out at 50 μg/ml CEACAM6 in 10 mM Acetate, pH 4 (GE Healthcare) and 50 μg/ml of Ovalbumin in 10 mM Acetate, pH 4.5. 120 μL of the sdAb at concentration of 1 nM to 60 nM were injected over the surfaces at a flow rate of 40 μl/min. Analyses were carried out at room temperature in HBS-EP, 10 mM HEPES pH 7.4, 150 mM NaCl, 3 mM EDTA and 0.005% surfactant P20 (GE Healthcare). Regeneration was performed with running buffer (HBS-EP). Data were analyzed with BIAevaluation software 4.1.

[3] = molecular target: T2, native CEACAM6 expressed by human tumor …; assay: cell-based or functional assay
[4] = molecular target: T3, CEACAM6 peptide HNLPQNRIGYSWYKG; assay: peptide array membrane, anti-llama detection
[5] = molecular target: T4, CEACAM6 peptide NRIGYSWYKGERVDG; assay: peptide array membrane, anti-llama detection
[6] = molecular target: T1, recombinant CEACAM6 N-terminal domain …; assay: SPR (Biacore 3000), 2A3-Fc immobilised, CEACAM6 recombinant protein injected at 0.1-200 nM
Experimental: One hundred twenty microliters of CEACAM6 recombinant protein at concentration of 0.1 nM to 200 nM was injected over the surfaces at a flow rate of 40 μl min-1. Analyses were carried out at room temperature in HBS-EP comprising 10 mM HEPES pH 7.4, 150 mM NaCl, 3 mM EDTA and 0.005% surfactant P20 (GE Healthcare). Regeneration was performed with HBS-EP used as running buffer. The data were analyzed by using BIAevaluation software 4.1.

Row | Molecule | Kd [1] [nM] | Kd [2] [nM] | koff [2] [s⁻¹] | kon [2] [M⁻¹ s⁻¹] | BxPC3 cell proliferation (MTT assay), IC50 [3] [nM] | binding result [4] | binding result [5] | Kd [6] [nM]
1 | anti-CEACAM6 mouse monoclonal antibody 9A6 (Santa Cruz Biotechnology) | 8 | – | – | – | – | – | – | –
2 | sdAb 2A3 (engineered, with c-myc and His tags) (VHH, FITC-labelled in the staining and flow cytometry assays, Llama VHH expressed in the E. coli periplasm and purified by IMAC; monomer by size exclusion; also called 2A3 sdAb; FITC-2A3) VHH: QVKLEESGGGLVQAGGSLRLSCRTSGRTNSVYTMGWFRQAPGKEREFVAQIMWGAGTNTHYADSVKGRFTISRDSAESTVYLQMNSLKPEDTAVYYCAANRGIPIAGRQYDYWGQGTQVTVSS | – | 4.7 | 0.0053 | 1.1e+06 | 6500 | binds | binds | –
3 | 2A3-Fc (2A3 sdAb fused to mouse Fc2b fragment) (Fc fusion, FITC, Alexa Fluor 594 or 64Cu-DOTA label in some assays, Expressed in 293-6E cells and purified on Protein G; about 80 kDa, bivalent; also called 2A3-mFc; 2A3mFc; not shown: mouse Fc2b fragment (Fc of mouse IgG2b) from vector pTT5) QVKLEESGGGLVQAGGSLRLSCRTSGRTNSVYTMGWFRQAPGKEREFVAQIMWGAGTNTHYADSVKGRFTISRDSAESTVYLQMNSLKPEDTAVYYCAANRGIPIAGRQYDYWGQGTQVTVSS | – | – | – | – | 8000 | – | – | 13
